In the Immune Epitope Database (IEDB) one finds IC50 data, which are given here for 23 sequences.

Some results are limits rather than exact numbers.

One test concerns the target HLA-A*02:03. Description: IEDB peptide-MHC binding, purified MHC/competitive/radioactivity; ≥ and ≤ were set here for values at or beyond the usual limits of such assays.
The target in a further test is HLA-A*02:06. The description is as above.
In another test the target is HLA-A*02:02. The description is as above.
The next test addresses HLA-A*02:01. The test is described as above.
In the next test the target is HLA-A*68:02. Description: IEDB peptide-MHC binding, cellular MHC/competitive/fluorescence; ≥ and ≤ were set here for values at or beyond the usual limits of such assays.
The mark [1] stands for this setting: source organism: Influenza A virus.
Setting [2] is: source organism: Vaccinia virus WR.
Where [3] appears, read: source organism: Hepacivirus hominis.
[4] abbreviates: source organism: Mammarenavirus whitewaterense.

The term IC50 denotes the concentration needed to halve the response being measured.

As for YLIRALTL, the IC50 was found to be 145 nM with HLA-A*02:03 (setting [1]); 2520 nM with HLA-A*02:06 (setting [1]); 216 nM with HLA-A*02:02 (setting [1]); 607 nM in the test with HLA-A*02:01 (setting [1]); 9520 nM with HLA-A*68:02 (setting [1]).

For LLLEWLAEVV, the IC50 with HLA-A*02:03 (source organism: SARS-CoV1) was determined as 0.81 nM; with HLA-A*02:06 (source organism: SARS-CoV1), 0.52 nM; in the test with HLA-A*02:02 (source organism: SARS-CoV1), 0.31 nM; with HLA-A*02:01 (source organism: SARS-CoV1), 0.37 nM; with HLA-A*68:02 (source organism: SARS-CoV1), 10800 nM.

For LLVTLAILTA, the half-inhibitory concentration (IC50) turned out to be 43 nM with HLA-A*02:03 (source organism: SARS-CoV1); 32 nM in the test with HLA-A*02:06 (source organism: SARS-CoV1); 4.4 nM in the test with HLA-A*02:02 (source organism: SARS-CoV1); 33 nM in the test with HLA-A*02:01 (source organism: SARS-CoV1); 16700 nM in the test with HLA-A*68:02 (source organism: SARS-CoV1).

As for TILATLNTL, the IC50 with HLA-A*02:03 (setting [2]) came out at 34 nM; in the test with HLA-A*02:06 (setting [2]), 26 nM; with HLA-A*02:02 (setting [2]), 238 nM; in the test with HLA-A*02:01 (setting [2]) it was 172 nM; with HLA-A*68:02 (setting [2]), 18500 nM.

For the sequence LLLSTTEWQV, the concentration for half-maximal inhibition (IC50) stood at 101 nM with HLA-A*02:03 (setting [3]); 13 nM in the test with HLA-A*02:06 (setting [3]); 18 nM in the test with HLA-A*02:02 (setting [3]); 7.1 nM with HLA-A*02:01 (setting [3]); 10100 nM in the test with HLA-A*68:02 (setting [3]).

For the sequence LLLSICLGSL, the IC50 is 104 nM with HLA-A*02:03 (source organism: SARS-CoV1); 258 nM in the test with HLA-A*02:06 (source organism: SARS-CoV1); 20 nM with HLA-A*02:02 (source organism: SARS-CoV1); 45 nM in the test with HLA-A*02:01 (source organism: SARS-CoV1); 54900 nM in the test with HLA-A*68:02 (source organism: SARS-CoV1).

RIKSVLDII: the half-inhibitory concentration (IC50) with HLA-A*02:03 (setting [2]) was 18 nM; in the test with HLA-A*02:06 (setting [2]) it was 2080 nM; with HLA-A*02:02 (setting [2]), 111 nM; in the test with HLA-A*02:01 (setting [2]), 4700 nM; with HLA-A*68:02 (setting [2]) it was 14500 nM.

IAMWLLLLSI: the half-maximal inhibitory concentration (IC50) in the test with HLA-A*02:03 (source organism: SARS-CoV1) stood at 1900 nM; with HLA-A*02:06 (source organism: SARS-CoV1) it was 498 nM; with HLA-A*02:02 (source organism: SARS-CoV1), 86 nM; with HLA-A*02:01 (source organism: SARS-CoV1), 216 nM; with HLA-A*68:02 (source organism: SARS-CoV1) it was 17200 nM.

Consider YNLSLSAAV, for which the IC50 is 1150 nM with HLA-A*02:03 (setting [4]); 1660 nM with HLA-A*02:06 (setting [4]); 868 nM in the test with HLA-A*02:02 (setting [4]); 255 nM in the test with HLA-A*02:01 (setting [4]); not below 70000 nM with HLA-A*68:02 (setting [4]).

As for KILSDENYLL, the concentration for half-maximal inhibition (IC50) with HLA-A*02:03 (setting [2]) is 3770 nM; with HLA-A*02:06 (setting [2]), 16 nM; with HLA-A*02:02 (setting [2]), 25 nM; with HLA-A*02:01 (setting [2]), 15 nM; with HLA-A*68:02 (setting [2]), not below 70000 nM.

As to MMQNDYGGM, the IC50 is 2740 nM with HLA-A*02:03 (setting [2]); 1660 nM with HLA-A*02:06 (setting [2]); 1080 nM with HLA-A*02:02 (setting [2]); 1280 nM with HLA-A*02:01 (setting [2]); not below 70000 nM with HLA-A*68:02 (setting [2]).

Consider LLDDFVEII, for which the IC50 with HLA-A*02:03 (source organism: SARS-CoV1) is 523 nM; with HLA-A*02:06 (source organism: SARS-CoV1) it was 159 nM; with HLA-A*02:02 (source organism: SARS-CoV1), 136 nM; with HLA-A*02:01 (source organism: SARS-CoV1), 51 nM; in the test with HLA-A*68:02 (source organism: SARS-CoV1), 30200 nM.

On to SINITPDDGL, for which the half-inhibitory concentration (IC50) is 1230 nM with HLA-A*02:03 (setting [2]); 0.34 nM in the test with HLA-A*02:06 (setting [2]); 413 nM with HLA-A*02:02 (setting [2]); 1020 nM with HLA-A*02:01 (setting [2]); 5890 nM with HLA-A*68:02 (setting [2]).

As to ALLFLMSFT, the IC50 with HLA-A*02:03 (source organism: SARS-CoV1) turned out to be 1990 nM; in the test with HLA-A*02:06 (source organism: SARS-CoV1) it was 128 nM; with HLA-A*02:02 (source organism: SARS-CoV1) it was 2830 nM; in the test with HLA-A*02:01 (source organism: SARS-CoV1) it was 406 nM; with HLA-A*68:02 (source organism: SARS-CoV1), 16000 nM.

Consider LVTSFLLMIV, for which the IC50 with HLA-A*02:03 (source organism: SARS-CoV1) stood at 12 nM; with HLA-A*02:06 (source organism: SARS-CoV1) it was 161 nM; with HLA-A*02:02 (source organism: SARS-CoV1) it was 31 nM; with HLA-A*02:01 (source organism: SARS-CoV1), 775 nM; with HLA-A*68:02 (source organism: SARS-CoV1), 5740 nM.

For the sequence KTIISEEYL, the IC50 with HLA-A*02:03 (setting [2]) turned out to be 1220 nM; in the test with HLA-A*02:06 (setting [2]), 150 nM; with HLA-A*02:02 (setting [2]) it was 916 nM; with HLA-A*02:01 (setting [2]), 694 nM; with HLA-A*68:02 (setting [2]), 10900 nM.

For GLVDVCFWS, the IC50 came out at 1070 nM in the test with HLA-A*02:03 (setting [4]); 534 nM with HLA-A*02:06 (setting [4]); 116 nM with HLA-A*02:02 (setting [4]); 112 nM in the test with HLA-A*02:01 (setting [4]); 8220 nM in the test with HLA-A*68:02 (setting [4]).

For the sequence KLLPQLPGV, the IC50 with HLA-A*02:03 (setting [3]) turned out to be 5.2 nM; in the test with HLA-A*02:06 (setting [3]), 1.7 nM; with HLA-A*02:02 (setting [3]), 51 nM; with HLA-A*02:01 (setting [3]) it was 1.7 nM; with HLA-A*68:02 (setting [3]) it was 42400 nM.

Consider YLGHSAGFTA, for which the IC50 is 86 nM with HLA-A*02:03 (setting [2]); 144 nM in the test with HLA-A*02:06 (setting [2]); 16 nM with HLA-A*02:02 (setting [2]); 21 nM with HLA-A*02:01 (setting [2]); 8220 nM with HLA-A*68:02 (setting [2]).

As for WIKDIMTST, the IC50 came to 12 nM with HLA-A*02:03 (setting [2]); 136 nM in the test with HLA-A*02:06 (setting [2]); 193 nM with HLA-A*02:02 (setting [2]); 948 nM with HLA-A*02:01 (setting [2]); 9480 nM with HLA-A*68:02 (setting [2]).

In the case of PTWLGAAITL, the IC50 is 1010 nM with HLA-A*02:03 (setting [2]); 1770 nM with HLA-A*02:06 (setting [2]); 1360 nM with HLA-A*02:02 (setting [2]); 4810 nM with HLA-A*02:01 (setting [2]); 7400 nM with HLA-A*68:02 (setting [2]).

On to GVSGLYIPGT, for which the half-inhibitory concentration (IC50) with HLA-A*02:03 (setting [2]) worked out at 2150 nM; with HLA-A*02:06 (setting [2]) it was 32 nM; with HLA-A*02:02 (setting [2]), 140 nM; in the test with HLA-A*02:01 (setting [2]), 4730 nM; with HLA-A*68:02 (setting [2]), 15800 nM.

For the sequence RLIVYPDLGV, the half-maximal inhibitory concentration (IC50) came to 15 nM with HLA-A*02:03 (setting [3]); 129 nM in the test with HLA-A*02:06 (setting [3]); 1.9 nM with HLA-A*02:02 (setting [3]); 43 nM with HLA-A*02:01 (setting [3]); 6680 nM with HLA-A*68:02 (setting [3]).
